Laboratory results from patent publication US7238786B2, “Monoclonal antibody cPAM4” (Immunomedics, Inc., priority 2002, dated 2007).

Tested on: PAM4 antigen
Assay: Competition with ^131I-mPAM4 binding to the antigen (FIG. 3)
Details: competing with ^131I-mPAM4 binding to the antigen
Excerpt: A chimeric antibody is a recombinant protein that contains the variable domains including the complementarity determining regions (CDRs) of an antibody derived from one species while the constant domains of the antibody molecule is derived from those of a human antibody.

- binding activity compared to murine PAM4: comparable binding activity
B1: cPAM4: chimeric PAM4: murine PAM4 variable domains with human light and heavy chain constant regions (antibody, V domains shown)
VL: DIQLTQSPAIMSASPGEKVTMTCSASSSVSSSYLYWYQQKPGSSPKLWIYSTSNLASGVPARFSGSGSGTSYSLTISSMEAEDAASYFCHQWNRYPYTFGGGTKLEIKR
VH: QVQLQESGPELVKPGASVKMSCKASGYTFPSYVLHWVKQKPGQGLEWIGYINPYNDGTQYNEKFKGKATLTSDKSSSTAYMELSRLTSEDSAVYYCARGFGGSYGFAYWGQGTLITVSA
